These results are taken from patent US20130259828A1.

The assay concerns the target IL-12 receptor on mouse lineage negative bone marrow cells (mouse) (UniProt Q60837). Description: cell-based or functional assay.

“And” between values parts separate entries of the source, which are not always exact repeats. Identical values can stand only once.

Chain of IL-12 receptor on mouse lineage negative bone marrow cells (mouse) (Q60837 20-738, chain 1 of 2): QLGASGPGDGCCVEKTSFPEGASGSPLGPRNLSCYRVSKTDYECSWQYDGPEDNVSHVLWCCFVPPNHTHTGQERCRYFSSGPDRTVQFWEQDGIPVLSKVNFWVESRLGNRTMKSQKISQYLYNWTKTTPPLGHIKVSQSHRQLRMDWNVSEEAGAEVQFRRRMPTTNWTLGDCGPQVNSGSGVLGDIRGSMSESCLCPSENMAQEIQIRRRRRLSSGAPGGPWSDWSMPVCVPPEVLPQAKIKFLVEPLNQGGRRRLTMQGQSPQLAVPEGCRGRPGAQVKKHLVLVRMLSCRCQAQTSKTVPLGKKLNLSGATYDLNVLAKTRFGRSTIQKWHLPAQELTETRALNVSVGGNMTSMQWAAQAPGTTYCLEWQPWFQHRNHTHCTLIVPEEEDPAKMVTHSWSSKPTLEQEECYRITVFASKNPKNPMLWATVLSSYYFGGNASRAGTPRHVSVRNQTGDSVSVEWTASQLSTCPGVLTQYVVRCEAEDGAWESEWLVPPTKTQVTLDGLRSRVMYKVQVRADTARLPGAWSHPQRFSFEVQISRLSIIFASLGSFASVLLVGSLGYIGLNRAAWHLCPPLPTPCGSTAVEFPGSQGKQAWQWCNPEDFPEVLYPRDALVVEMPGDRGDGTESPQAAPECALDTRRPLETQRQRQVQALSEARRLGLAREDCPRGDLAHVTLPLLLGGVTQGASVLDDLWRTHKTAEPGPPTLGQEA
Chain of IL-12 receptor on mouse lineage negative bone marrow cells (mouse) (P97378 24-874, chain 2 of 2, further chain): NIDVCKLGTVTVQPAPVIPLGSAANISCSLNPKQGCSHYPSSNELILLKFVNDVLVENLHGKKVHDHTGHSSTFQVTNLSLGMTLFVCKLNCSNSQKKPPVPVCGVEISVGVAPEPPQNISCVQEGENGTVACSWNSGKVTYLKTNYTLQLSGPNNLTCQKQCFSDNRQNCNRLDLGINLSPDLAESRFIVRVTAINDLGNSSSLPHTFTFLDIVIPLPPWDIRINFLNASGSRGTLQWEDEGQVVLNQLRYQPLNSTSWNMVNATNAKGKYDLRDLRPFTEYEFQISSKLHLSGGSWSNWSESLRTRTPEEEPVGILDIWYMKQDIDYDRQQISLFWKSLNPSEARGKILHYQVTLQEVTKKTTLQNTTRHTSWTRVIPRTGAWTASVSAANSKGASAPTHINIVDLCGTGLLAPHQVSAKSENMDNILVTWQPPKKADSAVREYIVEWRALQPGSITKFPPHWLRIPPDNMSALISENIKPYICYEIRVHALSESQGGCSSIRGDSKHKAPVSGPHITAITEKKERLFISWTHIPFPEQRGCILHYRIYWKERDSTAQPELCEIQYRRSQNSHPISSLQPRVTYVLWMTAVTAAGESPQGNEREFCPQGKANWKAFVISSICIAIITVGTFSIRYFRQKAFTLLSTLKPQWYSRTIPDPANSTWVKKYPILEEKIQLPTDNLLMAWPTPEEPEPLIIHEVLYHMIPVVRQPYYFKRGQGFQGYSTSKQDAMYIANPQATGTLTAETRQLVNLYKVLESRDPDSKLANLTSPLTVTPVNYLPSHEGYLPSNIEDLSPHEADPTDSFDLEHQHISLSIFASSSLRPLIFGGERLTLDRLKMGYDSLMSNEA

Take “exogenous IL-12 (IL-12 ligand) injected into C57BL/6 mice in Example 7”: the Fold-Increase in Lin- IL-12R+ cells (FACS of bone marrow after in vivo IL-12, 100 ng/mouse) is 5.4 fold and 3.5 fold.
